Laboratory results published in US11578136B2, “Compositions and methods for treating cancer” (INNATE PHARMA, priority 2017, dated 2023).

Assays:
[1] = system: monocyte-derived DC (moDC); assay: Activation of dendritic cells in presence of ATP (flow cytometry); assay type: cell-based, human; details: ATP at 0.125 mM, 0.25 mM or 0.5 mM; I-394 at 10 μg/ml
Protocol: While ATP has pro-inflammatory, CD39-mediated catabolism of ATP is believed to be able to impair dendritic cell (DC) activation, in turn altering a broader adaptive immune response against tumor antigen. In order to evaluate whether CD39 blockade using anti-CD39 antibodies could overcome CD39-mediated alteration of dendritic cell (DC) activation in the presence of ATP, we incubated monocyte-derived DC (moDC) with anti-CD39 antibodies in the presence of ATP.
Briefly, human monocytes were purified from human healthy blood and differentiated into MoDC in presence of GM-CSF and IL-4 during 6 days. […] In some cases, MoDC were preincubated during 1 hours in presence of CD39 inhibitor: […] (Tocris, 250 μM), CD73 inhibitor: APCP (Tocris 50 μM), anti-CD39 blocking antibody I-394 or BY40 (for BY40 see WO2009/095478), or anti-CD73 blocking antibodies. LPS (Invivogen, 10 ng/ml) was used as positive control. To assess resulting effect of ATP-mediated DC activation on CD4 T cells activation, ATP-activated DC were washed and then incubated with allogenic CD4 T cells (ratio 1 MoDC/4 T cells) for a mixed lymphocytes reaction (MLR) during 5 days. T cells activation and proliferation were analyzed through CD25 expression and Cell Trace Violet dilution by flow cytometry (FIG. 8).

[2] = system: CHO cells expressing cynomolgus (Macaca fascicularis) CD39; assay: Antibody titration on CHO-cyCD39 by flow cytometry; assay type: binding; details: result in words
Protocol: (§1) Antibody I-394 was tested in two repeated experiments for binding to CHO cells expressing human CD39, CHO cells expressing cynomolgus (Macaca fascicularis) CD39, CHO cells expressing murine CD39, and human Ramos lymphoma cells (ATCC™, reference CRL-1596). Cells were incubated with various concentration of unlabeled anti-CD39 antibody from 30 μg/ml to 5×10^−4 μg/ml, for 30 minutes at 4° C. After washes, cells were incubated with Goat anti-mouse H+L labeled secondary antibody for 30 min at 4° C.

[3] = target: T1, CD39 expressed by Ramos human lymphoma cells (Homo sapiens, UniProt P49961); assay: Inhibition of the enzymatic activity of cellular CD39 in Ramos cells (Cell Titer Glo); assay type: cell-based
T1 construct: host or cells: Ramos human lymphoma cells
T1 sequence (P49961 1-510): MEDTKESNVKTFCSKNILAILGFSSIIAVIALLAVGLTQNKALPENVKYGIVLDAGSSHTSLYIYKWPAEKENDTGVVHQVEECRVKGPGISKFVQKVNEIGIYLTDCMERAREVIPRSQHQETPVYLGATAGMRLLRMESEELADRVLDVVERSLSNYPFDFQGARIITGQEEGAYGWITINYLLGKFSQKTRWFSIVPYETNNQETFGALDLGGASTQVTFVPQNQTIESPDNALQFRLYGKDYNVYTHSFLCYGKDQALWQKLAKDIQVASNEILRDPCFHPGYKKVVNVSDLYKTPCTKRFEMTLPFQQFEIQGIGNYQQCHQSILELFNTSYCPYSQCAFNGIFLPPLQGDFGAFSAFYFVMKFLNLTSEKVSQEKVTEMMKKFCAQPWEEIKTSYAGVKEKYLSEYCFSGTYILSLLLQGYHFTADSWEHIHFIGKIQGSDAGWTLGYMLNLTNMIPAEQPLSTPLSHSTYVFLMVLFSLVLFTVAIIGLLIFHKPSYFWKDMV
Protocol: (§2) The inhibition of the CD39 enzymatic activity in CD39-expressing cells by antibodies was evaluated using Cell Titer Glo™ (Promega, reference G7571) that allows assessment of ATP hydrolysis through use of a reagent that generates a luminescent signal proportional to the amount of ATP present. The assay was thus designed to permit assessment of the inhibition of ATP hydrolyzed by CD39 in the cell culture supernatant. Briefly, 5×10^4 Ramos human lymphoma cells, 5×10^3 human CD39-, cynomolgus CD39- and mouse CD39-expressing CHO cells, were incubated 1 hour at 37° C. with anti-CD39 antibodies from 30 μg/ml to […]. Cells were then incubated with 20 μM ATP for 1 additional hour at 37° C. Plates were centrifuged for 2 min at 400 g and 50 μl cell supernatant are transferred in a luminescence microplate (white wells). 50 μl CellTiter-Glo® Reagent (CTG) was added to the supernatant and emitted light was quantified after a 5 min incubation in the dark using a Enspire™ luminometer. Anti-CD39 antibody efficacy was determined by comparing emitted light in presence of antibody with ATP alone (maximal light emission) and ATP together with cells (minimal light emission).
(§3) The inhibition by antibody I-394 of the ATPase activity of CD39 in CD39-expressing cells was evaluated using the assay used for inhibition of the enzymatic activity of cellular CD39 as described above (Methods).

[4] = system: cynomolgus CD39-expressing CHO cells (CHO-cyCD39); assay: Inhibition of the enzymatic activity of cellular CD39 in CHO-cyCD39; assay type: cell-based, cynomolgus (Macaca fascicularis); details: result in words
Protocol: as §2, §3

allogenic CD4 T cells = assay: Mixed lymphocytes reaction (MLR) with ATP-activated DC; assay type: cell-based, human; details: MoDC activated with ATP plus antibody; 5 days
Protocol: Briefly, human monocytes were purified from human healthy blood and differentiated into MoDC in presence of GM-CSF and IL-4 during 6 days. Then MoDC were activated in presence of ATP (Sigma, 0.25-1 mM) during 24 hours and DC activation were assessed by analyzing CD80, CD83 and HLA-DR expression by flow cytometry. In some cases, MoDC were preincubated during 1 hours in presence of CD39 inhibitor: […] (Tocris, 250 μM), CD73 inhibitor: APCP (Tocris 50 μM), anti-CD39 blocking antibody I-394 or BY40 (for BY40 see WO2009/095478), or anti-CD73 blocking antibodies. LPS (Invivogen, 10 ng/ml) was used as positive control. To assess resulting effect of ATP-mediated DC activation on CD4 T cells activation, ATP-activated DC were washed and then incubated with allogenic CD4 T cells (ratio 1 MoDC/4 T cells) for a mixed lymphocytes reaction (MLR) during 5 days. T cells activation and proliferation were analyzed through CD25 expression and Cell Trace Violet dilution by flow cytometry (FIG. 8).

[5] = target: T2, CHO cells expressing human CD39 (Homo sapiens, UniProt P49961); assay: Antibody titration on CHO-huCD39 by flow cytometry; assay type: binding; details: result in words
T2 construct: expressed in transfected cells; host or cells: CHO cells
T2 sequence (P49961 1-510): T1 sequence (P49961 1-510)
Protocol: as §1

[6] = target: T3, human CD39-expressing CHO cells (CHO-huCD39) (Homo sapiens, UniProt P49961); assay: Inhibition of the enzymatic activity of cellular CD39 in CHO-huCD39; assay type: cell-based; details: result in words
T3 construct: expressed in transfected cells; host or cells: CHO cells
T3 sequence (P49961 1-510): T1 sequence (P49961 1-510)
Protocol: as §2, §3

- potency at blocking CD39 in Ramos cells compared to all other antibodies tested [3]: greater potency
- maximum inhibition achieved, cellular CD39 ([3]; Ramos cells): 81.6%
- blocking CD39 enzymatic activity in tumor (Ramos) cells ([3]; result in words): highly potent
- binding to cells expressing human CD39 (CHO-huCD39) [5]: bound
Substance: I-394: anti-CD39 antibody, VH SEQ ID NO: 6, VL SEQ ID NO: 7; human IgG1 Fc with L234A/L235E/G237A/A330S/P331S
- ATP-induced moDC activation as assessed by HLA-DR or CD83 expression [1]: permitted moDC activation
- binding to cells expressing cynomolgus CD39 (CHO-cyCD39) [2]: bound
- blocking CD39 enzymatic activity in CHO-cyCD39 [4]: blocks
- T cells proliferation and activation in MLR (CD25 expression, Cell Trace Violet dilution) (allogenic CD4 T cells): higher T cells proliferation and activation
- blocking CD39 enzymatic activity in CHO-huCD39 [6]: blocks
